# From patent US20140087995A1 (published 2014)
# Numbered stars: 1 amine (or outer) side, 2 acyl side, 3 side chain; on linkers, the order of the positions; unused ones are H or OH. Bridge positions count the residues as written; N and C are the ends. Side chains are listed from the residue outwards. Ends that are not written are not given here. * marks the point of attachment. C20 diacid = O=C(O)CCCCCCCCCCCCCCCCCCC(=O)*; γGlu = O=C(O)[C@H](CCC(=O)[*:2])N[*:1]
# T1: human amylin receptor (amylin 3(a) receptor: human calcitonin receptor with RAMP-3) (human, UniProt P30988 25-474; O60896 24-148, limits assumed)
# T1 construct: whole, on cells; Whole cells in the luciferase assay (Assay II a); also called hAmylin-R; hAmylinR
# T1 sequence (looked up) 1: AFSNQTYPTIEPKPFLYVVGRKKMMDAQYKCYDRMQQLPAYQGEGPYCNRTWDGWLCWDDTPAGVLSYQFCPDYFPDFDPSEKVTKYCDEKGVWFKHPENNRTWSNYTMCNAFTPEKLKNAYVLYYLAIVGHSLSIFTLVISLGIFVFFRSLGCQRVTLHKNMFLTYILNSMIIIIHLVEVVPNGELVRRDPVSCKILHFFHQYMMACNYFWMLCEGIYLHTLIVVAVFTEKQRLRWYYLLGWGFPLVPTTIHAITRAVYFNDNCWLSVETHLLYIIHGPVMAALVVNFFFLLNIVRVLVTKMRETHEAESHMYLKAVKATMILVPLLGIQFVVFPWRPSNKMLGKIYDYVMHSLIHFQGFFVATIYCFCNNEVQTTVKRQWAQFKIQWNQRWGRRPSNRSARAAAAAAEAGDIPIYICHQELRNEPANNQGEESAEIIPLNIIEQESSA
# T1 sequence (looked up) 2: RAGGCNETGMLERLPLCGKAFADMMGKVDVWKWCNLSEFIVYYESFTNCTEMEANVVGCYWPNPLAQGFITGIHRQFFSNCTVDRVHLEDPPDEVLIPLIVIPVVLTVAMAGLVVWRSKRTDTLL
# T2: human calcitonin receptor (human, UniProt P30988 25-474)
# T2 sequence (looked up): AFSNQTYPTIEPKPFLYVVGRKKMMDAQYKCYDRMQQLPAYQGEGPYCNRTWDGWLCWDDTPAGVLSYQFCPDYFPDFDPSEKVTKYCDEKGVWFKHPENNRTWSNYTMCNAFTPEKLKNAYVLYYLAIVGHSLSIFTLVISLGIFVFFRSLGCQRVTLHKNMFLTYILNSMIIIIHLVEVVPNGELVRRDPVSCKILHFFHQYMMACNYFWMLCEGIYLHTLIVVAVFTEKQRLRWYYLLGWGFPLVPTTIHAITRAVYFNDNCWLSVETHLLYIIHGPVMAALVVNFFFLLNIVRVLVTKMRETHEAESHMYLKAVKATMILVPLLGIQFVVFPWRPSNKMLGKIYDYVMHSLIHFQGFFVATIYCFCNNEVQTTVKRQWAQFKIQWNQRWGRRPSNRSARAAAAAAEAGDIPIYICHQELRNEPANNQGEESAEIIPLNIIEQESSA
# T3: human amylin receptor (amylin 3(a) receptor: human calcitonin receptor co-expressed with RAMP-3) (human, UniProt P30988 25-474; O60896 24-148, limits assumed)
# T3 construct: whole, on cells; functional assay (Assay II a) used the whole cells; also called hAmylin-R; hAmylinR
# T3 sequence (looked up) 1: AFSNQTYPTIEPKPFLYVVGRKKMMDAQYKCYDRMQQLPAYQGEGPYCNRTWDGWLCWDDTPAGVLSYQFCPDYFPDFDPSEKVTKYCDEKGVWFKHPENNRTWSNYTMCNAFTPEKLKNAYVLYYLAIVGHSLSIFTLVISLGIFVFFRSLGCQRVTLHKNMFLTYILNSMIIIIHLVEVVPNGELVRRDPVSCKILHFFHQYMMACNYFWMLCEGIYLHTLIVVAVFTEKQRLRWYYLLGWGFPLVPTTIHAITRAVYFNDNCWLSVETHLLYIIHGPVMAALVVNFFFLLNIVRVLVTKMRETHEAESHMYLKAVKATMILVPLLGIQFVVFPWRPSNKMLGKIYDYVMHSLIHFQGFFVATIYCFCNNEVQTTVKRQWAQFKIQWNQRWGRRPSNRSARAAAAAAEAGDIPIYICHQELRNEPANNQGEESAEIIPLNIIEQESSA
# T3 sequence (looked up) 2: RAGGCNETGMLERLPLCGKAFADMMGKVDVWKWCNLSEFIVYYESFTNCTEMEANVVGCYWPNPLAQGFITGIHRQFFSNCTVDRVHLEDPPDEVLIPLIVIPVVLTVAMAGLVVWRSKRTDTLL
# T4: human calcitonin receptor (human, UniProt P30988 25-474)
# T4 sequence (looked up): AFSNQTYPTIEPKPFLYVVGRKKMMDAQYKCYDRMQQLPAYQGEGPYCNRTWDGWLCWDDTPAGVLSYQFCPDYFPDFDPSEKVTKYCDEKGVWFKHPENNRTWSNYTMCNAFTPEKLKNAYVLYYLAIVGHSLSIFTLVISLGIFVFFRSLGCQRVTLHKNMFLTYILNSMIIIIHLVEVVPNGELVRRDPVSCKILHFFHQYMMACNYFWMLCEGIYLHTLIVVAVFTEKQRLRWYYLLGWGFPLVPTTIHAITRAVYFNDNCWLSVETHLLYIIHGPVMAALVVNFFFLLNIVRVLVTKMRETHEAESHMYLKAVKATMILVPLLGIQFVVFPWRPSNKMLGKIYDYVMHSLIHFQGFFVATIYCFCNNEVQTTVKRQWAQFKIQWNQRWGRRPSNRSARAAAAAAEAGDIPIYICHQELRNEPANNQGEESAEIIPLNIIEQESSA
# Key:
# [1] = biological target: T1, human amylin receptor (amylin 3(a) …); experiment: SPA competition binding on membranes of BHK cells with human calcitonin receptor + RAMP-3; displacement of 125I-rat amylin (Assay V)
# Method in brief: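 Membranes from BHK Amylin 3(a)/CRE-luc cells (35 ng/μL final) were mixed with SPA beads and test compounds in 50 mM Hepes pH 7.4 with 1 mM CaCl2, 5 mM MgCl₂, 0.1% OA and 0.02% Tween20. Incubation ran 120 min at 25° C with shaking; IC₅₀ came from one-site competition fitting.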
# [2] = biological target: T1, human amylin receptor (amylin 3(a) …); experiment: cell-based or functional assay
# [3] = biological target: T2, human calcitonin receptor; experiment: cell-based or functional assay
# [4] = biological target: T3, human amylin receptor (amylin 3(a) …); experiment: SPA competition against 125I-rat amylin, membranes of Amylin 3(a)/CRE-luc BHK cells (Assay V)
# Experimental: The binding assay was performed using scintillation proximity assay (SPA) beads (RPNQ0001) from PerkinElmer and cell membranes from the Amylin 3(a)/CRE-luc cells (as described in Assay (II)) were used. Membranes were prepared in the following way; the cells were rinsed with PBS and incubated with Versene for approximately 5 min before harvesting. The cells were flushed with PBS and the cell-suspension was centrifuged for 5 min at 1000 rpm. Cells were homogenized (ultrathurrax) in a buffer containing 20 mM Na-HEPES and 10 mM EDTA (pH 7.4) and centrifuged at 20.000 rpm for 15 min. The resulting pellet was resuspended, homogenized and centrifuged (20.000 rpm, 15 min) in a buffer containing 20 mM Na-HEPES and 0.1 mM EDTA (pH 7.4, buffer 2). The resulting pellet was resuspended in buffer 2 and protein concentration was measured (BCA protein Assay, Pierce). The homogenate was kept cold during the whole procedure. The membranes were kept at −80° C. until use. The assay was performed in a 384 well Optiplate (PerkinElmer) in a total volume of 40 ul. Membranes were mixed with SPA beads. Final concentration of membranes 35 ng/μL final and SPA beads was 0.05 mg/well. […] Samples were analyzed on TopCounter™ (Packard). The IC₅₀ was calculated using (one site binding competition analysis) GraphPad Prism5 as a measure of receptor affinity.
# [5] = biological target: T3, human amylin receptor (amylin 3(a) …); experiment: cell-based or functional assay
# [6] = biological target: T4, human calcitonin receptor; experiment: cell-based or functional assay; remark: listed apart in the source
IC50 [1] [nM],hAmylin-R funct. EC50 (pM) [2] [pM],Ratio hCT/hAmylin funct. [3] [ratio],hCTR funct. EC50 (pM) [3] [pM],IC50 [4] [nM],hAmylin-R funct. EC50 [5] [nM],Ratio hCT/hAmylin funct. (hCTR EC50 against hAmylin-R EC50) [6],hCTR funct. EC50 [6] [nM],Binder
0.894,363,6.1,2220,,,,,"{C20 diacid-γGlu}-KCNTATCATQRLAEFLRHSSPNFGAIPSSTNVGSRTY-NH2 (disulfide 2-7; SMILES CC[C@H](C)[C@H](NC(=O)[C@H](C)NC(=O)CNC(=O)[C@H](Cc1ccccc1)NC(=O)[C@H](CC(N)=O)NC(=O)[C@@H]1CCCN1C(=O)[C@H](CO)NC(=O)[C@H](CO)NC(=O)[C@H](Cc1c[nH]cn1)NC(=O)[C@H](CCCNC(=N)N)NC(=O)[C@H](CC(C)C)NC(=O)[C@H](Cc1ccccc1)NC(=O)[C@H](CCC(=O)O)NC(=O)[C@H](C)NC(=O)[C@H](CC(C)C)NC(=O)[C@H](CCCNC(=N)N)NC(=O)[C@H](CCC(N)=O)NC(=O)[C@@H](NC(=O)[C@H](C)NC(=O)[C@@H]1CSSC[C@H](NC(=O)[C@H](CCCCN)NC(=O)CC[C@H](NC(=O)CCCCCCCCCCCCCCCCCCC(=O)O)C(=O)O)C(=O)N[C@@H](CC(N)=O)C(=O)N[C@@H]([C@@H](C)O)C(=O)N[C@@H](C)C(=O)N[C@@H]([C@@H](C)O)C(=O)N1)[C@@H](C)O)C(=O)N1CCC[C@H]1C(=O)N[C@@H](CO)C(=O)N[C@@H](CO)C(=O)N[C@H](C(=O)N[C@@H](CC(N)=O)C(=O)N[C@H](C(=O)NCC(=O)N[C@@H](CO)C(=O)N[C@@H](CCCNC(=N)N)C(=O)N[C@H](C(=O)N[C@@H](Cc1ccc(O)cc1)C(N)=O)[C@@H](C)O)C(C)C)[C@@H](C)O, also called compound 16)"
,,,,0.09,0.069,5.2,0.354,"K([γGlu-C20 diacid])CNTATCATQRLAHFLRHSSPNFGAIPSSTNVGPNTY-NH2 (disulfide 2-7; N-terminus assumed; SMILES CC[C@H](C)[C@H](NC(=O)[C@H](C)NC(=O)CNC(=O)[C@H](Cc1ccccc1)NC(=O)[C@H](CC(N)=O)NC(=O)[C@@H]1CCCN1C(=O)[C@H](CO)NC(=O)[C@H](CO)NC(=O)[C@H](Cc1c[nH]cn1)NC(=O)[C@H](CCCNC(=N)N)NC(=O)[C@H](CC(C)C)NC(=O)[C@H](Cc1ccccc1)NC(=O)[C@H](Cc1c[nH]cn1)NC(=O)[C@H](C)NC(=O)[C@H](CC(C)C)NC(=O)[C@H](CCCNC(=N)N)NC(=O)[C@H](CCC(N)=O)NC(=O)[C@@H](NC(=O)[C@H](C)NC(=O)[C@@H]1CSSC[C@H](NC(=O)[C@@H](N)CCCCNC(=O)CC[C@H](NC(=O)CCCCCCCCCCCCCCCCCCC(=O)O)C(=O)O)C(=O)N[C@@H](CC(N)=O)C(=O)N[C@@H]([C@@H](C)O)C(=O)N[C@@H](C)C(=O)N[C@@H]([C@@H](C)O)C(=O)N1)[C@@H](C)O)C(=O)N1CCC[C@H]1C(=O)N[C@@H](CO)C(=O)N[C@@H](CO)C(=O)N[C@H](C(=O)N[C@@H](CC(N)=O)C(=O)N[C@H](C(=O)NCC(=O)N1CCC[C@H]1C(=O)N[C@@H](CC(N)=O)C(=O)N[C@H](C(=O)N[C@@H](Cc1ccc(O)cc1)C(N)=O)[C@@H](C)O)C(C)C)[C@@H](C)O, also called compound 67)"
